Test results reported in patent US20080132679A1 (KANEKA, published 2008).

Each binder was assayed against T1, Recombinant Human Insulin Receptor (28-956) (human, UniProt P06213 28-956) (assay: SPR (BIAcore), peptide immobilized on CM5 by amine coupling, SIR as analyte 0.781-100 nM).
T1 construct: range 28-956; Bought soluble receptor used as the analyte; also called soluble insulin receptor; SIR
Description: The ligand was immobilized on the sensor chip CM5 research grade (Biacore AB) by the amine coupling method. Thus, the peptide mentioned above was dissolved in 20 mM carbonate buffer (pH 8.5) (500 μg/ml), and 100 μl of the solution was passed through the flow cell at a flow rate of 5 μl/min. The amount of the peptide immobilized was 200 RU (resonance units).
Recombinant Human Insulin Receptor (28-956) (GT/TECHNE Corp.) was used as the analyte soluble insulin receptor (SIR). To 50 mg in a vial was added HBS-EP buffer (250 ml) for thorough dissolution ([…]), and the solution was 10-fold diluted to give a 100 nM solution. Eight concentration levels from 100 nM to 0.781 nM were prepared by subsequent repetitions of doubling dilution, and measurements were carried out using HBS-EP buffer (10 mM HEPES pH 7.4, 0.15M NaCl, 3 mM EDTA, 0.005% Surfactant P20) (Biacore AB) as a running solution; the rate of flow was 10 μl/min. A sensorgram was thus obtained.
Recombinant Human Insulin Receptor (28-956) (GT/TECHNE Corp.) was used as the analyte SIR. Eight concentration levels from 100 nM to 0.781 nM were prepared by subsequent repetitions of doubling dilution, which was started from diluting 100 nM solution, and measurements were carried out using HBS-EP buffer as a running solution; the rate of flow was 10 μl/min. A sensorgram was thus obtained.

Binder | Kd [µM]
CASDIVEGIYL (Chemically synthesized; immobilized on a CM5 sensor chip by amine coupling (130 RU) for the Biacore assay; also called Peptide 15) [peptide P15] | 24
CQHILGSDIVEGIYL (Chemically synthesized; immobilized on a CM5 sensor chip by amine coupling (270 RU) for the Biacore assay; also called Peptide 21) [peptide P21] | 12
CASDIVEGLYIVLAER (Chemically synthesized by the Fmoc method; immobilized on a CM5 sensor chip by amine coupling (200 RU) for the Biacore assay; also called Peptide 14) [peptide P14] | 1.6
